In the DeepSol protein solubility set:

Assay: soluble on expression in E. coli; label from the status in PepcDB or PDB records

Row | Sequence | soluble on expression in E. coli
1 | MSLNTYLNEISKFVDENREEIVSLWKEIVNMESYTHCKESVNKLAERLKLEFEKEGLDCELVDVGDNGSTLIGTLGSNIDKKPIIFSGHMDTVFETGTFGENPFKIIEGKAYGPGVLDMKGGIIISLYVIKALNKIGYKERPIKIVFSGDEEIGHKDSTGADVILREAKGGLCAFNMETGLVDNSLCVGRKGRIGCNIHVKGVETHAGNDFEGGRNAIEEMANKILRIQKLTNLDVGTTVSVSVIKGGRVENSIPEDCSIKVDLRFEKVEEMENVKEQVREICKETYIEGTSTEVNFISEMMPFETTEDVMRFHTFVNEVSKENGFGELNAKRLGGSSDASYLTIANVPTICSFGVRGEWNHTSREYAVVDSMFERVKLISTVILNLDKFEEGHHHHHH | soluble
2 | MSRPLSIALISETYPPEVNGVANTLGRLHAGLQQLGHRVQVVRPRQPGDDGRRSDAELVLTRGWPLPGYPGLQWGMSSLHKLLRCWKRQRPDVLYIATEGPLGFSALRAARRLGIPAVSGFHTNFQQYSEHYGFGPLTRLVTGYLRWFHNRTQMTLVPSGSQRMELQRRGFERLNLLSRGVDSQLFHPSRRDPELRRRWGLGEQDIAVLHVGRLAAEKNLGLLGGTFRALCAAHPQLKLRLVLVGDGPERKHLERDLPEALFCGVQRGETLAAHYASGDLFLFPSLSETFGNVVLEAQAAGLAVVAFDQAAAGQHIRHGHNGVLAAPGDKSGFVEVASWLLDDQERLRRVRLNARQHASRQGWDSIVEHFQNYLEDACASPLVQPARSKPERPPAEDGGALPRSRELEHHHHHH | not soluble
3 | TAVEPLALIRADGPTLPARGMHKPALCIIAQGRKEVQLAEERYIYDPLHYLVVSVTLPLAGQVIDASPDAPYLCVRLDIDPAEITQLISDAGPMEVASRRGDRGLYVDRIDASLLDAVLRLIHLLDSPRDIPMLAPLILREIFYRLLRSGQGQRL | not soluble
4 | MSLNVDPNITKYMIKAKIVTDGVVEKPDVVGAIFGQTEGLLGDELDLRDLQKSGKIGRIEVEIDTKKGRTEGYVLIPSGLDQVESSILAAALETIDRIGPCKAKVEIESIEDVRINKRDRVIKRAEELYRKMGENGKSLSESIVQTVREEVEKKEIISYGEEHLPAGPAIADSDSIIVVEGRNDVLNLLRYGIKNTIAVQGTSVPKTVKELSKSRTVTLFVDGDHGGDLIIKEMLQVADVDFIARAPPGTEVEELTYKQIIKALKYKTPVEQYLETHGMIEELKEWSSRNTKELEERQGNELKNERPEKINENEESEKNVELKEGSVQKLETVPEFDPSSPESIKFKLKQLYESRELELFDGQSSVGKFPVSDAIEKIESMHGDLLITGGIISQRLLDIAYNIGVKAIYGFKIGNITKKPDDIKVVAWDHIEGHHHHHH | soluble
5 | MAYKSLLTVATSPERVEPAITVASRLALSSDAHLDVLALGIDGTQVAYYNMGGTAVVLQMALERAEQEAQAVEKAAAAALSAQPAMLRASVESAVAQMGGLAGLVALRSRFADLVVLSRPYGKGRGAETEAVVEAALFEGQAPVLVVPDDPALSERFGHRIVIAWDQSREALTAVRKAMPFLLRADNVDIVIVDPAAHGAERSDPGGALCQMLVRHGVRAEVSVLAKTMPRISDVIARHVRDQDADLLVMGAYGHSRFREAILGGATRDMLELAEVPVLMAH | not soluble
6 | MGSDKIHHHHHHMRASVLSDWLAQRLDRGNGQPIYRQLHRLLQQAILTRELPPGSKVPSSRLLAQELGIGRNTVTQVYEQLVLEGYVSSATGRGTFVADSAPDEIVGVPDAAAPDTSAESSPQQAKRALSTRGARLIAGAGVSKRQWGAFMPGVPDVTKFPARVWSRLHNKYWRRLRPDLLTYAPGGGLASLRHALADYLRTSRSVRCTPEQIIITTGIHQSVDLAVRLLSDPGDVIWTEDPCYWGVRSVLHVSGLQSRPIAVDEEGINPSADDLAQPPKLMLVTPSHQYPLGMVMSLARRRMLLEYARQNQCWIIEDDYDSEYRYGSRPLASLQGLDTSGQVIYVGSFGKTLFPGLRIGYLVVPEALAESFATASAELYREGQLLQQAMLAEFIAEGHFTSHIRRMRTLYGQRRQTLLDAAAHRYGDALPAVGGDAGLHLVMQLPEGSDDRQVAATALERNIVVRPLSGYYAQPSLAPSGLLIGYACVPDEEIAPAFNTLADAIDVTLPEFA | not soluble
7 | MKKVGILNSEISKIVADMGHMDTLAVVDLGFPIPQGVKKVDLVVDRGKPGLMEVIEILLRELKVERIILAKEMDEKSIQTKQELLKLIEKMNGPVEVVTVPHKEFKEMSKNVKGIIRTGADIPYSNVILVGGVIF | soluble
8 | MGSDKIHHHHHHMTKNSETGHISEGGGILTRPDDATIAYRRLEGKTPGVVFLHGFHSDMEGSKALALEAMCQAQGRAFLRFDYFGHGKSSGDVALGTIGRWAADAVAVIGELTKGPQILVGSSLGGWIALLAALEMKDKVAGLVGVAAAPDFTEDLMWQDFTFEQRRTLMETGELELPNCHEPDNPWRIHRSLIEDGRNHLLLRDLIQIHCPVWLIQGQKDEDVPWQTALRLADCLASEQVEIVLVKDGDHRLSRDGDLIRLTNMVAAMLGMIQEL | not soluble
9 | MQFGIFTIGDVTTDPTTGVTPSEHDRINAMTQIALKAEEVGLDVFATGEHHNPPFVPSSPTTHLAYIAAQTKNIQLSTSTTLITTNDPVKIAEDYAFLQHLSGGRVDLMMGRGNTGPVYPWFGKDIRKGIPLAVENYHLLRKLWREPVVNWKGEFRTPLQNYTSTPAPLGDVPPFVWHGSIRSVQIAEQAAFYGDGFFHNNIFWNKEHTAQMVNIYRQRFEKYGHGRADQAIVGLGGQVFIGETEAEAKKFFRPYFDNAPVYGHGPSLEEFTELTPLTVGTVEQVIERTMQFADWVGDYQRQLFLIDHAGLPLEVVLNQIEILGTQVVPELRRRMEKRRPDHVPSDPPSHSFLKAHPEHPHFLVEPSKTSAQ | not soluble
10 | MRYSSRMPGSVMPGAGAHPRIPQVQTSVANSQILGYLGRALSLEFTAGQHYLAQASLAKFRQEISYAEGFITLANEEFQHANLITDRMVAQGALPAGSVLRPAGSANNIAEALKSCEEREIALIQLYTEATQYCANMGAQEDHALFSRLLEEEQSQLMRVQAWLQDYFQMMANTYQPDRSFV | not soluble
11 | MGSSHHHHHHSSGLVPRGSHMSGSGSGSGTALTPSYLKDDDGRSLILRGFNTASSAKSAPDGMPQFTEADLAREYADMGTNFVRFLISWRSVEPAPGVYDQQYLDRVEDRVGWYAERGYKVMLDMHQDVYSGAITPEGNSGNGAGAIGNGAPAWATYMDGLPVEPQPRWELYYIQPGVMRAFDNFWNTTGKHPELVEHYAKAWRAVADRFADNDAVVAYDLMNEPFGGSLQGPAFEAGPLAAMYQRTTDAIRQVDQDTWVCVAPQAIGVNQGLPSGLTKIDDPRAGQQRIAYCPHLYPLPLDIGDGHEGLARTLTDVTIDAWRANTAHTARVLGDVPIILGEFGLDTTLPGARDYIERVYGTAREMGAGVSYWSSDPGPWGPYLPDGTQTLLVDTLNKPYPRAVAGTPTEWSSTSDRLQLTIEPDAAITAPTEIYLPEAGFPGDVHVEGADVVGWDRQSRLLTVRTPADSGNVTVTVTPAA | soluble
12 | MDYLIVGAGFTGATLAERLAAAGKRVLVVDRRDHIGGNAYDEMDPHGVLVHRYGPHIFHTNSKKVFDYLSRFTEWRPYYHRVRAVVEGKEVPLPFSLATLRALFSPKLADRLEEKLIARFGYGARVPILRLREEEDPDLRFLADYVYKNVFEGYTLKQWGLRPEELSPSVTARVPVLVSHDTRYFQDAYQAMPKEGYTALFRRMLAHPNIKLLLQADWKEVEGEVKFARLVFTGPIDEFFGYLHGPLPYRSLRFRMELHPGPWAQEVGTVNYPNEHPYTRVTEFKHLTGQDYLPHSTLCYEYPEAYEPGRNEPYYPVPREENEERYRLYLEEAKKLKGVYFAGRLGDYRYYNMDQAVARALKLFEEIVHE | soluble
13 | MKLKAILIVALSVVLFLVGYREMKPISDEQKMESMIKALEKNDAKVEKWSWLARETKTISNIHTFQKLLNDVKEKANIQKWEVEQSPDGYKATSYKKLSSYEERVVVTWSKENTKENTFIIFEVSGAKWDPKYVQNMNKIFSEKPIIYTCVQGVLNDKIEGVLQNKTNQVLKDLSARAIEQVEERAFVSVSAYNKKWDDALSTNREKINVQIAIRSTDNKDTIVVGTPIITSEY | not soluble
14 | MAEINIYQNPGQSLANIYKGFARQCNPGFVFPEAQTIEAWDIPLRLHPEFIPGGDISKADQQYSTLLAQEIANGVTIGFRMVNEKERVCNVEILPLLTSMAQNLDRIKARFGSGYLDRFKGSPNVYPTDVGFSTDASGGISQESGLLVSYGVNLRTLTPGTWQAMTLPEDIKALVGPGVGLRLDAPNFSDVFNTIKSGLRYTTAVTLLLAYFAAI | soluble
15 | MVTRVLIVGDGDAGTIMANKLRFHTDRRDVDITVVGNSKDHYFKPDGVHISFNMVDYKKSVKPTEFLFNYGVNYIRDTVSRIDVADHSVQTTGGRNLDYDYLIIATGDRFTPEDVPGYAESAKHFYDLPHALELQKEIKGFKGGKVVIGQASIPIMCPPAPYEFTFLLEEYLNFHGLKDKTEIHYIYPLNRVFTIPNVADFVAKRMEERGIITHTLFNVESIDPKNKKIQSLEGESINYDLLVLIPPHRGQKVITDSGLADESGYIDVDKYKLNYKDYDNVFAIGDATNLPVSKAGATAHFEALYLSNRIAAETSGNVYNELYEGDVACTTVTGYEKGLTLYFNYNKPPRANYDSKLDYFLKWQSGDTFFSSMLRGVALEHHHHHH | not soluble
16 | MLGAIIGDIVGSVYEWNNIKTKDFPLFRKDCFFTDDTVMTCAVAEAIMNGGQKDDFIDAMKKYGRMYPNADYGARFNAWLNSDNREPYNSFGNGSAMRISPCAWIMDCGFYAKTGIWPSSRGLTSLSAEVTHNHPEGVKGAMATADAIFLCRFYFGGYCREYEQSINDNPTECKRRIKDYIEKEYDYNLSQTLDEIRPNYRFNETCQETVPQAIIAFLESRDFEDAIRNAISLGGDSDTLAAITCSIAEAAYGIPDWIKDKAYSYLDEPLKDVVRRWENRIKAYLEHHHHHH | soluble
17 | MSLKDKILTIDVGTGSTRAAIVRIDGAMIGFAQREYEQTTPRAGWSEQAPSLWWQAACDCIREVLYRYPETAAQIAVIGACGQMHGTVLLDDRGELVEDRALLWNDKRSQPQVDAFNAREGWEKWLAHLNNPPAAAWPAFKLAWWRENHPDRWSQLAKVLMPKDYINFMLTGAMATDYSEASCYFLMDSETRSWSSQACETFGLRVDQLPELKLSSDIIGQVTQPAADLTGLPAGIPVVAGTSDMAASLLGSGVYEPGMASDSTGTSTLMTVVSPRPLHHPLVNNLHLANAAWGGFTILDAGGDAVRWARLALADNQITHPQLLQEAAAVPAGAEGLLFLPYLTGERLAEHTNSRAQFFGLQRKHRRGHLFRAVLEGVAFASWRNLRQLQKCGQYPQQMIASGGGARSSLWLEIKASAYNLPILSTRNQENGVTGCGIIAGVGVGLYADFASGVRQTVQFEKLISPDPLLRDYYHACCELFDTLYRQSAALYDRLDALSEGHHHHHH | soluble
18 | MKSLVKVSLAALALAFAVSAYAAEKELIVATDTAFVPFEFKQGDKYVGFDIDLWDAIAKKLDLKYTLKPMDFSGIIPALQTKNVDLALAGITITDERKKAVDFSDGYYNSGLLVMVKADNNDIKSEADLQGKVLAVKSGTGSVDYAKANIKTKDLRQFPNIDNAYLELGTGRADAVLHDTPNILYFIKTAGNGQFKAVGESIKAQQYGVAFPQGSDLREKVNAALKSLKEDGTYAEIYKKWFGVEPK | not soluble
19 | MGSDKIHHHHHHMLSRVAENLYWMARYLERTEDMARLINATTLLLLDLPQGAEFGWDILLQVTGDAKLYMEHYGTPEEGRIMRFLIADERNPNSVMAAIHQARENCRTFRDLLPAEFWERLNTLFLFVREHAGTSSDSRHARYAFLNEVISRRHALVGLLISSMSQDNVYQFIKLGRNMERADMTTRIVDVTSAVILPQDQGLQKTTTSSLWLGVLRALSAFEMYRRHVSVQVRSNQVVDYLLKDNKFPRSMKYCLGEMEVALAYLPNAGIPAEAVRRARRRLDALKLANLRPDLLHEYLDQAQKDLAMVHRTIHGTYFARDDTGFDGVPSGLLLNAAQA | not soluble
